± gives the standard deviation of the averaged measurements.
Assays:
[1] = tested on: Saccharomyces cerevisiae; experiment: protein stability index of tFT-peptide fusion (C-terminal peptide) (PSI (0-1 scale)); higher = more stable (slower turnover)
Experimental: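 MPS profiling in S. cerevisiae of the tFT-X12 degron library: putative degron peptides plus stable controls, 12 aa, fused to the C-terminus of a sfGFP-mCherry timer. Cells are FACS-sorted into 8 mCherry/sfGFP bins and deep-sequenced. PSI runs from 0 (unstable) to 1 (stable). Backgrounds are wild type, das1Δ and doa10Δ at 30 °C, and wild type, das1Δ, cdc34-1 and cdc53-1 at 37 °C; 2-3 technical replicates each.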

[2] = tested on: Saccharomyces cerevisiae; experiment: as above; conditions: genetic background: wild type; temperature: 30 C
[3] = genetic background: cdc34-1, temperature: 37 C
[4] = genetic background: cdc53-1, temperature: 37 C
[5] = genetic background: das1 deletion, temperature: 30 C
[6] = genetic background: das1 deletion, temperature: 37 C
[7] = genetic background: doa10 deletion, temperature: 30 C
[8] = genetic background: wild type, temperature: 30 C
[9] = genetic background: wild type, temperature: 37 C
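Further: PSI is a weighted mean of sequencing reads over stability bins, variants kept only with over 10 reads, mCherry proximal and sfGFP distal, peptide attached via GGGS linker.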

Row | Sequence | protein stability index [1, 3] | protein stability index [1, 4] | protein stability index [1, 5] | protein stability index [1, 6] | protein stability index [1, 7] | protein stability index [1, 8] | protein stability index [1, 9] | protein stability index [2]
1 | GGVVAACRGGIG | 0.319 ± 0.011 | 0.3862 ± 0.0037 | 0.351 ± 0.017 | 0.394 ± 0.0076 | 0.361 ± 0.022 | 0.348 ± 0.01 | 0.374 ± 0.0091 | 0.346 ± 0.04
2 | VCLWVEVLIVLG | 0.0839 ± 0.023 | 0.205 ± 0.056 | 0.136 ± 0.03 | 0.25 ± 0.014 | 0.106 ± 0.031 | 0.129 ± 0.021 | 0.183 ± 0.0078 | 0.209 ± 0.011
3 | LVFFLFFFRCFS | 0.506 ± 0.059 | 0.514 ± 0.016 | 0.37 ± 0.049 | 0.534 ± 0.014 | 0.3734 ± 0.0018 | 0.36 ± 0.033 | 0.488 ± 0.0042 | 0.449 ± 0.035
4 | CFSYLLIVLLFP | 0.168 ± 0.019 | 0.2273 ± 0.00043 | 0.198 ± 0.024 | 0.334 ± 0.031 | 0.216 ± 0.0065 | 0.17 ± 0.045 | 0.307 ± 0.0052 | 0.279 ± 0.005
5 | VFLVFSVWVVYR | 0.2 ± 0.0081 | 0.304 ± 0.00039 | 0.233 ± 0.024 | 0.357 ± 0.018 | 0.2068 ± 0.00094 | 0.218 ± 0.026 | 0.343 ± 0.053 | 0.318 ± 0.027
6 | RRLAVWCDFRSL | 0.684 ± 0.054 | 0.75155 ± 0.00053 | 0.663 ± 0.018 | 0.7472 ± 0.00055 | 0.416 ± 0.0061 | 0.454 ± 0.035 | 0.653 ± 0.0095 | 0.45 ± 0.012
7 | PRINTFVVVRVC | 0.102 ± 0.02 | 0.183 ± 0.015 | 0.216 ± 0.038 | 0.336 ± 0.013 | 0.0626 ± 0.015 | 0.0722 ± 0.018 | 0.0609 ± 0.0015 | 0.159 ± 0.042
8 | ALLVLTVSYVFS | 0.045 ± 0.011 | 0.0772 ± 0.044 | 0.0924 ± 0.028 | 0.188 ± 0.0081 | 0.057 ± 0.035 | 0.0839 ± 0.013 | 0.153 ± 0.031 | 0.167 ± 0.022
9 | VVIWWFSAVVSV | 0.0446 ± 0.0021 | 0.138 ± 0.026 | 0.0727 ± 0.021 | 0.2 ± 0.013 | 0.0495 ± 0.014 | 0.0622 ± 0.026 | 0.165 ± 0.0031 | 0.148 ± 0.036
10 | AYACSILRCKSS | 0.624 ± 0.015 | 0.727 ± 0.013 | 0.636 ± 0.012 | 0.713 ± 0.026 | 0.186 ± 0.016 | 0.219 ± 0.052 | 0.422 ± 0.04 | 0.34 ± 0.086
11 | RFWFTFYLIAVF | 0.0612 ± 0.029 | 0.0779 ± 0.017 | 0.109 ± 0.031 | 0.203 ± 0.0098 | 0.0617 ± 0.016 | 0.0761 ± 0.023 | 0.163 ± 0.081 | 0.103 ± 0.0027
12 | GLSWRLVWVVII | 0.0421 ± 0.0072 | 0.0599 ± 0.011 | 0.132 ± 0.02 | 0.189 ± 0.0048 | 0.0916 ± 0.006 | 0.0531 ± 0.0056 | 0.0493 ± 0.0093 | 0.103 ± 0.011
13 | VFHMFGWCGGAR | 0.728 ± 0.015 | 0.8 ± 0.0098 | 0.673 ± 0.012 | 0.77 ± 0.026 | 0.678 ± 0.042 | 0.673 ± 0.028 | 0.7518 ± 0.0011 | 0.764 ± 0.071
14 | HNLIRKHAKESS | 0.63 ± 0.083 | 0.702 ± 0.0032 | 0.641 ± 0.034 | 0.699 ± 0.015 | 0.171 ± 0.036 | 0.249 ± 0.016 | 0.459 ± 0.054 | 0.394 ± 0.085
15 | VLYLQCITSAGH | 0.1691 ± 0.00061 | 0.203 ± 0.0061 | 0.273 ± 0.025 | 0.195 ± 0.021 | 0.31 ± 0.044 | 0.29 ± 0.037 | 0.178 ± 0.0088 | 0.246 ± 0.023
16 | SYLPSHVYIFLL | 0.275 ± 0.0049 | 0.309 ± 0.02 | 0.273 ± 0.032 | 0.4417 ± 0.0022 | 0.097 ± 0.0087 | 0.0758 ± 0.019 | 0.129 ± 0.034 | 0.128 ± 0.019
17 | LQSYVSRLVRLS | 0.618 ± 0.082 | 0.745 ± 0.027 | 0.653 ± 0.041 | 0.7356 ± 0.00043 | 0.191 ± 0.0033 | 0.186 ± 0.036 | 0.359 ± 0.055 | 0.295 ± 0.015

Row | Sequence | protein stability index [1, 3] | protein stability index [1, 4] | protein stability index [1, 5] | protein stability index [1, 6] | protein stability index [1, 7] | protein stability index [1, 8] | protein stability index [1, 9] | protein stability index [2]
18 | FFRFNCVFWLFL | 0.509 ± 0.0099 | 0.551 ± 0.033 | 0.443 ± 0.021 | 0.604 ± 0.034 | 0.211 ± 0.0028 | 0.233 ± 0.016 | 0.428 ± 0.053 | 0.3129 ± 0.0019
19 | VMRMVWVLGVMC | 0.281 ± 0.02 | 0.325 ± 0.047 | 0.251 ± 0.037 | 0.405 ± 0.0087 | 0.178 ± 0.0075 | 0.203 ± 0.028 | 0.35 ± 0.0091 | 0.299 ± 0.011
20 | YVDSGLTLIHLA | 0.606 ± 0.0079 | 0.723 ± 0.036 | 0.662 ± 0.018 | 0.72 ± 0.013 | 0.17091 ± 8.6e-05 | 0.181 ± 0.023 | 0.334 ± 0.011 | 0.297 ± 0.021
21 | HFLRYCSWFGLL | 0.656 ± 0.032 | 0.745 ± 0.015 | 0.6558 ± 0.0024 | 0.781 ± 0.013 | 0.142 ± 0.014 | 0.171 ± 0.017 | 0.353 ± 0.0095 | 0.15 ± 0.0097
22 | KCEKGLYCCIAF | 0.608 ± 0.055 | 0.68 ± 0.036 | 0.518 ± 0.031 | 0.664 ± 0.0099 | 0.516 ± 0.025 | 0.534 ± 0.027 | 0.626 ± 0.018 | 0.504 ± 0.073
23 | IFVLLSYYPLFV | 0.263 ± 0.016 | 0.279 ± 0.012 | 0.265 ± 0.019 | 0.422 ± 0.012 | 0.288 ± 0.016 | 0.243 ± 0.027 | 0.391 ± 0.0059 | 0.338 ± 0.018
24 | LFMRGEDEMFSV | 0.722 ± 0.052 | 0.758 ± 0.024 | 0.658 ± 0.01 | 0.7826 ± 0.0013 | 0.668 ± 0.012 | 0.672 ± 0.022 | 0.766 ± 0.036 | 0.746 ± 0.018
25 | FLMCVFFLCFSN | 0.304 ± 0.031 | 0.41 ± 0.051 | 0.308 ± 0.024 | 0.472 ± 0.015 | 0.208 ± 0.0021 | 0.22 ± 0.019 | 0.325 ± 0.029 | 0.34 ± 0.028
26 | GTEFSNVITYLV | 0.713 ± 0.018 | 0.758 ± 0.018 | 0.6288 ± 0.003 | 0.775 ± 0.021 | 0.34 ± 0.0043 | 0.389 ± 0.027 | 0.6103 ± 0.0027 | 0.493 ± 0.08
27 | RRRGIYARASVV | 0.636 ± 0.018 | 0.728 ± 0.019 | 0.647 ± 0.019 | 0.723 ± 0.017 | 0.249 ± 0.0044 | 0.276 ± 0.043 | 0.434 ± 0.023 | 0.382 ± 0.015
28 | VTGFGVAIVCVT | 0.263 ± 0.021 | 0.292 ± 0.0042 | 0.254 ± 0.044 | 0.3722 ± 0.0024 | 0.191 ± 0.0072 | 0.241 ± 0.033 | 0.364 ± 0.015 | 0.369 ± 0.084
29 | LPVPARPFPPSS | 0.662 ± 0.027 | 0.713 ± 0.0083 | 0.684 ± 0.024 | 0.711 ± 0.014 | 0.705 ± 0.031 | 0.688 ± 0.021 | 0.6907 ± 0.0012 | 0.714 ± 0.0095
30 | LLLFTPFYLLLR | 0.0987 ± 0.033 | 0.0767 ± 0.0017 | 0.218 ± 0.021 | 0.27 ± 0.0065 | 0.525 ± 0.015 | 0.188 ± 0.037 | 0.219 ± 0.016 | 0.305 ± 0.011
31 | FYFRSSFFTICF | 0.36 ± 0.038 | 0.3875 ± 0.0025 | 0.365 ± 0.033 | 0.46 ± 0.0018 | 0.4318 ± 0.0037 | 0.352 ± 0.014 | 0.446 ± 0.017 | 0.398 ± 0.024
32 | LIRDLLYMAVLV | 0.249 ± 0.015 | 0.258 ± 0.016 | 0.295 ± 0.019 | 0.357 ± 0.018 | 0.32 ± 0.0083 | 0.281 ± 0.039 | 0.329 ± 0.0044 | 0.38 ± 0.019
33 | CRCLFVVKNWLS | 0.62 ± 0.039 | 0.706 ± 0.012 | 0.623 ± 0.015 | 0.688 ± 0.04 | 0.147 ± 0.029 | 0.167 ± 0.013 | 0.293 ± 0.06 | 0.262 ± 0.017

— the supplement of paper PMC10724198
